This is an account of results in US20210011017A1.

The target in experiment [1] is recombinant BoHV-1 gE CT-His polypeptide (Bovine herpesvirus type 1) (UniProt Q08101). Nature of the experiment: ELISA on coated gE CT-His, secondary antibody only (negative control). In general terms: An ELISA detects its analyte on a solid surface through an enzyme-linked reagent.
For experiment [2], the target named is streptavidin (NEB, Cat #A00160) (UniProt P22629). In words: ELISA, streptavidin well without peptide, secondary antibody only.
Sequence of UniProt P22629 (P22629 37-163 limits assumed): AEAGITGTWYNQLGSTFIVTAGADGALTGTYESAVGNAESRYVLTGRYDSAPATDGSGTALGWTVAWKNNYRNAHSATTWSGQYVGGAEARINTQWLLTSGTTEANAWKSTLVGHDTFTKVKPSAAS
Experiment [3] addresses recombinant BoHV-1 gE CT-His polypeptide (Bovine herpesvirus type 1) (UniProt Q08101). In words: competitive ELISA on gE CT-His; serum, then HRP-MAb 2H8F3 (competitor); negative control reference.

As for “goat anti-mouse IgG [HRP] secondary antibody”, the O.D. 450 nm stood at 0.057 O.D. 450 nm in experiment [1] and 0.055 O.D. 450 nm in experiment [2].
As to “inactivated, non-infected fetal calf serum (Atlas biologicals), negative control”, in experiment [3], the % Inhibition came out at 0% and the S/N Ratio turned out to be 1.

Broadly, the % Inhibition is the relative decrease from the control value, in per cent.
